T1: GH3-1 (Vitis vinifera, UniProt F6H697)
T1 construct: gene GH3.1_2
T1 sequence (F6H697 1-598): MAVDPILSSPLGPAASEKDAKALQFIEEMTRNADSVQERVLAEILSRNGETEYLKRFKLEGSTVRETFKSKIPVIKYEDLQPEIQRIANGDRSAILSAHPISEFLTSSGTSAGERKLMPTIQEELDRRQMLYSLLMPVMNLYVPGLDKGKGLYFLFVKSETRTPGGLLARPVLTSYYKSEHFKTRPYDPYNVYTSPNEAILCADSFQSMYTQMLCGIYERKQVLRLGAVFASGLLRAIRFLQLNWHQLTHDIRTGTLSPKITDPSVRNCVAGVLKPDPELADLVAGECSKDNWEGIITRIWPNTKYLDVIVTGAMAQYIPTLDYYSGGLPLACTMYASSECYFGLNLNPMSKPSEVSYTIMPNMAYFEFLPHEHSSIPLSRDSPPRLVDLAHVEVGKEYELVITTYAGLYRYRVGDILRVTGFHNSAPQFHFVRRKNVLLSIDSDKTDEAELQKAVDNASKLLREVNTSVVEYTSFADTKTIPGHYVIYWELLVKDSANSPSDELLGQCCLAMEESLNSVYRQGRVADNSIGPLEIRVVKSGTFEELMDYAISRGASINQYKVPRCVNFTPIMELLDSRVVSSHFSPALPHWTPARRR


Columns and labels:
GH3-1 = biological target: T1, GH3-1; experiment: IAA-Asp formation by LC-ESI-MS/MS with recombinant enzyme; Dixon plots; assay type: biochemical
[1] = substrate: O=C(O)Cc1c[nH]c2ccccc12; experiment: Michaelis-Menten kinetics (Km), LC-ESI-MS/MS of IAA-Asp; assay type: biochemical, Vitis vinifera; details: MgATP catalytic site
[2] = substrate: Nc1ncnc2c1ncn2[C@@H]1O[C@H](COP(=O)(O)OP(=O)(O)OP(=O)(O)O)[C@@H](O)[C@H]1O; experiment: as above; assay type: biochemical, Vitis vinifera; details: Mg2+ catalytic site

| Molecule | Ki (GH3-1) [nM] | Km [1] [µM] | Vmax [1] [µmol/min/mg] | kcat [1] [s⁻¹] | Km [2] [µM] | Vmax [2] [µmol/min/mg] | kcat [2] [s⁻¹] |
| --- | --- | --- | --- | --- | --- | --- | --- |
| Nc1ncnc2c1ncn2[C@@H]1O[C@H](COP(=O)(O)OCCc2c[nH]c3ccccc23)[C@@H](O)[C@H]1O [AIEP, adenosine-5′-[2-(1H-indol-3-yl)ethyl]phosphate] | 200 | – | – | – | – | – | – |
| GH3-1 (Vitis vinifera) (protein) MAVDPILSSPLGPAASEKDAKALQFIEEMTRNADSVQERVLAEILSRNGETEYLKRFKLEGSTVRETFKSKIPVIKYEDLQPEIQRIANGDRSAILSAHPISEFLTSSGTSAGERKLMPTIQEELDRRQMLYSLLMPVMNLYVPGLDKGKGLYFLFVKSETRTPGGLLARPVLTSYYKSEHFKTRPYDPYNVYTSPNEAILCADSFQSMYTQMLCGIYERKQVLRLGAVFASGLLRAIRFLQLNWHQLTHDIRTGTLSPKITDPSVRNCVAGVLKPDPELADLVAGECSKDNWEGIITRIWPNTKYLDVIVTGAMAQYIPTLDYYSGGLPLACTMYASSECYFGLNLNPMSKPSEVSYTIMPNMAYFEFLPHEHSSIPLSRDSPPRLVDLAHVEVGKEYELVITTYAGLYRYRVGDILRVTGFHNSAPQFHFVRRKNVLLSIDSDKTDEAELQKAVDNASKLLREVNTSVVEYTSFADTKTIPGHYVIYWELLVKDSANSPSDELLGQCCLAMEESLNSVYRQGRVADNSIGPLEIRVVKSGTFEELMDYAISRGASINQYKVPRCVNFTPIMELLDSRVVSSHFSPALPHWTPARRR | – | 21.1 ± 1.4 | 0.384 | 0.442 | 13.2 ± 1.4 | 0.261 | 0.3 |

Source: publication PMC3359377, “A Novel Tool for Studying Auxin-Metabolism: The Inhibition of Grapevine Indole-3-Acetic Acid-Amido Synthetases by a Reaction Intermediate Analogue” (PLoS ONE, 2012)
